In patent US20070059320A1:

Biological target: NADH dehydrogenase subunit 2 (ND2), native protein in brain lysates, PSD preparations, hippocampal neurons and tissues (rat) (UniProt P11662)
Test: cell-based or functional assay

NADH dehydrogenase subunit 2 (ND2), native protein in brain lysates, PSD preparations, hippocampal neurons and tissues (rat), sequence (P11662 whole entry): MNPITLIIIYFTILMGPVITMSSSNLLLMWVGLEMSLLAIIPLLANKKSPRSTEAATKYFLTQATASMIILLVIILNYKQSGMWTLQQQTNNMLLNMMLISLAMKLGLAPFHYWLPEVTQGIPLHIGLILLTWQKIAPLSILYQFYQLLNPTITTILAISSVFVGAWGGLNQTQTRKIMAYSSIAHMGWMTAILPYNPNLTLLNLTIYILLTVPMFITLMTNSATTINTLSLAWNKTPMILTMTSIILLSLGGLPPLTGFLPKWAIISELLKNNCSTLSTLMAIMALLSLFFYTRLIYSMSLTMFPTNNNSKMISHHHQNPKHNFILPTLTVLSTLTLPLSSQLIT

Src40-58 peptide (amino acid residues 40-58 of SEQ ID NO:4)
NMDAR component of mEPSCs (cultured hippocampal neurons, whole-cell recording): 56%
